In PMC8010463, “Discovery of a novel lactate dehydrogenase tetramerization domain using epitope mapping and peptides” (The Journal of Biological Chemistry, 2021):

Assays:
[1] = test system: LDH-H variants; experiment: nanoDSF thermal denaturation of LDH-H variants; assay type: physicochemical, human; conditions: for nanoDSF denaturation pattern / Ratio 350/330 nm / Tm: n = 6; for nanoDSF denaturation pattern: in words; for Ratio 350/330 nm: nanoDSF fluorescence emission ratio; for Ratio 350/330 nm / Tm: pH 7.6; for Tm: Tycho NT.6, protein 25 to 65 μM, 50 mM sodium phosphate, 100 mM NaCl, 20% glycerol, mean ± SEM
Protocol: Solutions of proteins (LDH-H, LDH-Htr or variants), stored in a 50 mM sodium phosphate, 100 mM NaCl, and 20% glycerol, pH 7.6, were evaluated on a Tycho NT.6 device (NanoTemper Technologies) using concentrations ranging from 25 to 65 μM.

[2] = test system: LDH-H oligomeric state; experiment: Mass photometry of LDH-H, LDH-Htr and variants; assay type: physicochemical, human; conditions: for Oligomeric state in solution: in words; for Molecular weight (main oligomeric state): mean ± SD, one measurement, repeated at least 3 times with similar results, 1 μl of 1 μM stock into 16 μl PBS; for Relative intensity of dimer peak / Molecular weight of dimer peak / Molecular weight of tetramer peak / Relative intensity of tetramer peak: peak label in figure; for Molecular weight of dimer peak: theoretical dimer 78 kDa (LDH-H), 73.2 kDa (LDH-Htr); for Molecular weight of tetramer peak: theoretical tetramer 155 kDa (LDH-H)
Protocol: Protein landing was recorded using a Refeyn OneMP (Refeyn Ltd) MP system by adding 1 μl of the protein stock solution (1 μM) directly into a 16 μl drop of filtered PBS solution. Movies were acquired for 60 s (6.000 frames) with the AcquireMP (version 2.1.1; Refeyn Ltd) software using standard settings. Data were analyzed using default settings on DiscoverMP (version 2.1.1; Refeyn Ltd) ([44]). Contrast-to-mass calibration was performed prior to the experiments using a mix of proteins with molecular weights of 66, 146, 480, and 1048 kDa.

[3] = test system: LDH-H variants; experiment: Intrinsic tryptophan fluorescence spectra of variants; assay type: physicochemical, human; conditions: variant 1.3 μM; λexc 286 nm; n = 6; pH 7.6
Protocol: All spectrophotometric experiments were performed with opaque 96-well plates using a Spectramax m2e spectrophotometer (Molecular Devices) following previously described procedures ([16]).
Full tryptophan fluorescence spectra were recorded using an excitation wavelength of 286 nm and recording the emission spectra from 320 to 400 nm at room temperature. The raw fluorescence of each experiment was subtracted to a corresponding control experiment without the protein. […] For dissociation in subunits, increasing amounts of guanidinium hydrochloride ranging from 0.3 to 2 M were put in contact with the studied proteins (1.3 μM), and fluorescence spectra were recorded afterward.

[4] = biological target: dimeric LDH-Htr; experiment: MST, peptide binding to LDH-Htr; design: species or system human; conditions: 1.5 s MST on time, n = 3, labeled LDH-Htr 100 nM, 50 mM sodium phosphate pH 7.6, 100 mM NaCl, 0.01% Tween-20, LP-22 value 'estimated'
Protocol: MST measurements were performed on a NanoTemper Monolith NT.115 instrument (NanoTemper Technologies) using red dye–N-Hydroxysuccinimide fluorescent labeling. LDH-Htr purified to homogeneity was labeled with the Monolith red dye–N-Hydroxysuccinimide second-generation labeling dye (NanoTemper Technologies), according to the supplied protocol. Measurements were performed in 50 mM sodium phosphate, pH 7.6, and 100 mM NaCl containing 0.01% Tween-20 in standard-treated capillaries (NanoTemper Technologies). The final concentration of proteins in the assay was 100 nM. Ligands were titrated in 1:1 dilutions following manufacturer's recommendations. Experiments were performed in triplicates using 40% light-emitting diode power, high MST power, laser on time 20 s and laser off time 3 s. Peptides were evaluated for their thermophoretic pattern, and Kds were extracted from raw data at a 1.5 s MST on time following the manufacturer's instructions.

[5] = biological target: tetrameric LDH-5 (Homo sapiens, UniProt P00338); experiment: nanoDSF thermal shift of LDH-5 with peptide; assay type: binding
[6] = test system: dimeric LDH-Htr; conditions: LDH-Htr 15 μM; peptide 500 μM; n = 3; 50 mM sodium phosphate, 100 mM NaCl, pH 7.6; stabilization
Protocol: Solutions of proteins (LDH-1, LDH-5, or LDH-Htr) with peptides were evaluated on a Tycho NT.6 device. Evaluations were performed in a 50 mM sodium phosphate and 100 mM NaCl (pH 7.6) buffer. According to standard manufacturer's procedures, samples were poured into capillaries and heated up to 95 °C in 3 min, while following fluorescence emission at 330 and 350 nm. Melting temperatures were extracted from the derivative of the 350/330 nm fluorescence ratios upon increasing temperature.

[7] = test system: dimeric LDH-Htr; experiment: WaterLOGSY NMR with LDH-Htr; assay type: binding, human; conditions: LDH-Htr 15 μM; LP-22 400 μM; 50 mM sodium phosphate pH 7.6, 100 mM NaCl, 10% heavy water; 277 K
Protocol: (§1) Human LDH-H (full length and truncated)-6-His proteins for 1D NMR were expressed and purified from E. coli, as described previously. All experiments were performed on an Ascend Avance III 600 MHz system equipped with a broadband cryoprobe (Bruker) following a previously described procedure ([16]).
(§2) For WaterLOGSY NMR studies, samples were prepared in 10% heavy water containing 50 mM sodium phosphate buffer, pH 7.6, and 100 mM NaCl. The concentration of LDHs was ranging from 15 to 20 μM of monomer. Ligand binding was detected using a WaterLOGSY ephogsygpno.2 avance-version sequence with a 1 s mixing time, 4096 scans were collected at 277 K to yield a 16 K points free induction decay. Water signal suppression was achieved using an excitation-sculpting scheme, and a 50 ms spinlock was used to suppress protein background signals.

[8] = test system: tetrameric LDH-1; experiment: WaterLOGSY NMR with LDH-1; assay type: binding, human; conditions: LDH-1 15 μM; LP-22 400 μM; 50 mM sodium phosphate pH 7.6, 100 mM NaCl, 10% heavy water; 277 K
Protocol: as §1, §2

Compound | nanoDSF denaturation pattern [1] | Ratio 350/330 nm [1] | Tm ([1]; nanoDSF) [°C] | Oligomeric state in solution [2] | Molecular weight (main oligomeric state) [2] [kDa] | Relative intensity of dimer peak [2] [%] | Molecular weight of dimer peak [2] [kDa] | Molecular weight of tetramer peak [2] [kDa] | Tryptophan fluorescence intensity compared with LDH-1 [3] | Kd [4] [µM] | EC50 ([5]; read-out: EC50 (destabilization of tetrameric LDH, ΔTm vs peptide concentration)) [µM] | Relative intensity of tetramer peak [2] [%] | Tm difference versus LDH-Htr ([1]; nanoDSF, higher than LDH-Htr) [°C] | ΔTm of dimeric LDH-Htr [6] [°C] | Dependence of LDH destabilization on protein concentration ([5]; nanoDSF, Fig. S2) | WaterLOGSY saturation transfer with dimeric LDH-Htr [7] | WaterLOGSY saturation transfer with tetrameric LDH-1 [8]
E62A: LDH-H recombinant alanine variant | denaturation patterns comparable to dimeric LDH-Htr | 0.95 | 58.9 ± 0.1 | behaving mainly as dimers in solution | 77 ± 18 | 77 | 77 | 145 | decays in fluorescence intensity characteristic of the dimeric forms of LDHs |  |  |  |  |  |  |  | 
Ac-GEMMDLQHGSLFLQTP-NH2 [GP-16] |  |  |  |  |  |  |  |  |  | 240 | 262 |  |  |  |  |  | 
F72A: LDH-H recombinant alanine variant | denaturation patterns comparable to dimeric LDH-Htr | 0.94 | 53.9 ± 0.1 | behaving mainly as dimers in solution | 70 ± 17 | 79 | 70 | 141 | decays in fluorescence intensity characteristic of the dimeric forms of LDHs |  |  | 19 |  |  |  |  | 
L71A: LDH-H recombinant alanine variant | a lower initial ratio and a red shift | 0.90 | 67.1 ± 0.1 | behaving as a mixture of tetramers and dimers | 148 ± 12 | 36 | 72 | 148 |  |  |  | 56 | 10 |  |  |  | 
CSCC[C@H](NC(=O)[C@H](CCC(=O)O)NC(=O)CNC(=O)[C@H](CCCCN)NC(=O)[C@H](CC(C)C)NC(=O)[C@H](CCCCN)NC(=O)[C@H](CC(=O)O)NC(=O)[C@H](CCC(=O)O)NC(=O)[C@@H](N)CC(C)C)C(=O)N[C@@H](CCSC)C(=O)N[C@@H](CC(=O)O)C(=O)N[C@@H](CC(C)C)C(=O)N[C@@H](CCC(N)=O)C(=O)N[C@@H](Cc1c[nH]cn1)C(=O)NCC(=O)N[C@@H](CO)C(=O)N[C@@H](CC(C)C)C(=O)N[C@@H](Cc1ccccc1)C(=O)N[C@@H](CC(C)C)C(=O)N[C@@H](CCC(N)=O)C(=O)N[C@H](C(=O)N1CCC[C@H]1C(N)=O)[C@@H](C)O [LP-22] |  |  |  |  |  |  |  |  |  | 156 |  |  |  | 2.8 | an increasing amount of subunit reverted the effect | undergoes a saturation transfer with dimeric LDH-Htr | not with the tetrameric LDH-1
